# Source: US20010018511A1 (CANCER RESEARCH CAMPAIGN TECHNOLOGY, published 2001)
# B1: phage clone 12/1 (peptide)
# chain: MPRFMDYWEGLN
# notes: Tested as whole phage showing the peptide; not shown: minor coat protein III of the filamentous phage of the display library; the peptide stands at its N-terminus; phage stra
# B2: phage clone BB3 (peptide)
# chain: PAFSRFWSDLSAGAH
# notes: Tested as whole phage showing the peptide; also called hdm2 phage; hdm2-phage; not shown: minor coat protein III of the filamentous phage of the display library; the peptide stands at its N-terminus; phage stra
# B3: phage clone 15/1 (peptide)
# chain: IDRAPTFRDHWFALV
# notes: as for B1
# B4: phage clone 15/5 (peptide)
# chain: PRPALVFADYWETLY
# notes: as for B1
# B5: phage clone 12/2 (peptide)
# chain: VQNFIDYWTQQF
# notes: as for B1
# B6: phage clone 12/5 (peptide)
# chain: TGPAFTHYWATF
# notes: as for B1
# Target: T1, GST-hdm2 (1-188) (S. japonicum; human, UniProt Q00987 1-188)
# T1 construct: range 1-188; Fusion made in E. coli BL21 from pGEX-2T; GST, linker, hdm2 1-188 in this order; also called GST-hdm2 protein
# Assay: single clone phage ELISA on coated antigen
# Procedure: Amplified and purified phages from this round of biopanning are tested in an ELISA on the proteins used for their selection. For single clone screening E.coli K91 cells are infected with appropriate phage dilutions and spread on LB agar with 20 μg/ml tetracycline. Single colonies are transfered to wells of a 96-well tissue culture plate containing 200 μl 2×YT medium with 20 μg/ml tetracycline per well. Phage supernatant is collected for ELISA screening after a 24 hour incubation at 37° C. with shaking. ELISA positive clones are grown up as 2 ml bacterial cultures in 2×YT medium with 20 μg/ml tetracycline for 24 hours. Phage are PEG precipitated and redissolved in 200 μl TBS buffer. Phage DNA is extracted with phenol/chloroform and ethanol precipitated. The DNA pellet is redissolved in 10 μl water and used as template for sequencing (Sequenase).
# 100 μl phage suspension (supernatant or PEG concentrated phage) is diluted in PBST-M and added for three hours at 4° C. Bound phages are reacted with 100 μl HRP-labelled sheep anti-M13 antibody (Pharmacia) for one hour at room temperature followed by substrate development with 100 μl TMB/H202 (0.1 mg/ml TMB, 0.3% H₂O₂ in 0.1 M Na-acetate, pH 6.0) for 15 min. The reaction is stopped by adding 100 μl 1 M sulphuric acid to the substrate and the absorbance is measured at 450 nm. All washings between the incubation steps are done with tap water.
# T1 sequence (Q00987 1-188): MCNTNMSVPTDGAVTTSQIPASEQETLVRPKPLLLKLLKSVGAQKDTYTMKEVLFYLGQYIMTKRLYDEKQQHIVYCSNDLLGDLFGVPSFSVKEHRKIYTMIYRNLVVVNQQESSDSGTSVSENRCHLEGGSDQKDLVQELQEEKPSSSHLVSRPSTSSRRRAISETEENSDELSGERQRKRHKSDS
row,Binder,binding result
1,B1,binds
2,B2,binds
3,B3,binds
4,B4,binds
5,B5,binds
6,B6,binds
